Laboratory results as given in the DeepSol protein solubility set.

Assay: soluble on expression in E. coli; label from the status in PepcDB or PDB records

Sequence | soluble on expression in E. coli
MSNEIYTAITIGPICKTLDKARSVKSFWTASYLFSWIMRELLERLPKEERPEGSFEVLSPHRDGKDVPEETSKKVGLFPDRLFAKGELEEEKLQEIKGKIFIELAEKFKNAFQDEKDGITRKIDTESDPKRKRELEEIQSRYSNAALKGEDIRKYLENYLSISCITVELSSDCNILEQLNSYLDTQELFNKASIQTDEDYMELFIEAPNNPFLKAYSQDRAFPSTSEIAVSGWEQDPPKDENGEVEYTQLTSKPGFRNCYKYLAVIKADGDGFGTYIKELKVDEEKEIKENGEKENELSRFTKSFFEFSVEVANELIQKTKAIPVYIGGDDLFLFAPVLEGNVEKDVFNLIKEIDDLFIQKEIGEGLSMSYGVSIFYYKSPMSEAIDIADSMLRKAKEEKEEKEKKKDTVAISIQKHSGQKIEFLLPCKHSTDKCKQETGLYKKATELIRAFKEDDSMLNSLIYWIEDMYETIFTDEVTLYQERINAVFDNFFDEEIHKENEVFFDLLKKFIHSMHHSEDTPRKLKDKKKLLHGILRYCQFVTAKKEK | not soluble
MSLVDRNIGGSVTAPRIRVIEIDAFERDIRLRLPFRFGAATLEKAPQAFLRVRVEDEEGRTGLGATAEMMVPKWFDKNPAFTPAQNVDQLRTSIHTAAAASLEPSELATLFAAARLNEMETVRRLPGNPLAACFGPSLIARAALDAYCRLAGISFFEAVRGNLVGIGGPMLPGDIDADAASAMLAGLRPAGAISARHTIGLVDPITEGDIVDPVGDGLPESLEAVITRYGNRWFKIKLSGTIDADIDRLTRIAAVLDRLPDYRVTVDGNEQFGAPEQLAALLGQIEARPRLARLRAAIAFVEQPFSRAITMETPLGDLAAQLPFLIDESDDGDGAFAAARRLGYTGVSSKTCKGIYRSLMKAIRIRTGTAPGLFLSGEDLTCQAGLAVQQDLALVSLLGLSHVERNGHHYVAGMQGAPQAEKLRFAAAHPDLYEQGGDGPLLSIRDGRIAIASLGAVGYASGALPDFEAMTPMSEGHHHHHH | soluble
MAKKTSSGRGKLPPGPTPLPVIGNILQIGIKDISKSLTNLSKVYGPVFTLYFGLKPIVVLHGYEAVKEALIDLGEEFSGRGIFPLAERANRGFGIVFSNGKKWKEIRRFSLMTLRNFGMGKRSIEDRVQEEARCLVEELRKTKASPCDPTFILGCAPCNVICSIIFHKRFDYKDQQFLNLMEKLNENIKILSSPWIQICNNFSPIIDYFPGTHNKLLKNVAFMKSYILEKVKEHQESMDMNNPQDFIDCFLMKMEKEKHNQPSEFTIESLENTAVDLFGAGTETTSTTLRYALLLLLKHPEVTAKVQEEIERVIGRNRSPCMQDRSHMPYTDAVVHEVQRYIDLLPTSLPHAVTCDIKFRNYLIPKGTTILISLTSVLHDNKEFPNPEMFDPHHFLDEGGNFKKSKYFMPFSAGKRICVGEALAGMELFLFLTSILQNFNLKSLVDPKNLDTTPVVNGFASVPPFYQLCFIPIHHHH | soluble
GLLMEGDEPAGGKWNFDTENRKPAAPDLLRPRPLRFEPDAEVRAVLDLVEARFPRHFGRLRPFHWATDRAEALRALDHFIRESLPRFGDEQDAMLADDPFLSHALLSSSMNLGLLGPMEVCRRAETEWREGRAPLNAVEGFIRQILGWREYVRGIWTLSGPDYI | not soluble
MVVTRIAPSPTGDPHVGTAYIALFNYAWARRNGGRFIVRIEDTDRARYVPGAEERILAALKWLGLSYDEGPDVAAPTGPYRQSERLPLYQKYAEELLKRGWAYRAFETPEELEQIRKEKGGYDGRARNIPPEEAEERARRGEPHVIRLKVPRPGTTEVKDELRGVVVYDNQEIPDVVLLKSDGYPTYHLANVVDDHLMGVTDVIRAEEWLVSTPIHVLLYRAFGWEAPRFYHMPLLRNPDKTKISKRKSHTSLDWYKAEGFLPEALRNYLCLMGFSMPDGREIFTLEEFIQAFTWERVSLGGPVFDLEKLRWMNGKYIREVLSLEEVAERVKPFLREAGLSWESEAYLRRAVELMRPRFDTLKEFPEKARYLFTEDYPVSEKAQRKLEEGLPLLKELYPRLRAQEEWTEAALEALLRGFAAEKGVKLGQVAQPLRAALTGSLETPGLFEILALLGKERALRRLERALA | soluble
FHPHTKGSQILMDLSHKAVKRQASFCNAITFSNRPVLIYEQVRLKITKKQCCWSGALRLGFTSKD | not soluble
MVCDEKRYAIREVAEITGVKPVTLRAWQRRYNLVQPDRTEKGHRLFTDQDIEMIRQIQSWLAKGVAIGKVGALLQSGVSESESIPQPVGQLEECETLLTALAALQRSKAEQIIATVLKEYPLSVMQAQFVQPVTEALERVKGPLRSLQIGLFRTLMLSKLAFILDAENKAAVKGKCLCISLDEAGSLNAWLWALAWAENGHQVTLLEAVDDIRGLLENPGLAQYQILALHAHRALPAAQQSALASLQQQFGEQCVLSNVLQQLQS | not soluble
GSHMSSGYPGVSWNKRMCAWLAFFYDGASRRSRTFHPKHFNMDKEKARLAAVEFMKTVENNGRKKLEPGGSQFIVTD | soluble
SQPLLDRSIPDFTAFTTVDDWLSAIKMVQYRDSFLTAGFTSLQLVTQMTSEDLLRIGITLAGHQKKILNSIHSMRVQISQSPTAMA | soluble
MTKEAVLYKKEDGRIRCLACARKCLIGEGQVGFCGVRSVRNGKLYLDVYGKIAAAHIDPIEKKPLVHFNPGSKVFSFSTYGCNWMCMYCQNYDISQRRKAEGVELSPEEIVELAMGYDVDGMTYTYNEPAIFSEFAHDVGIVAKRYGLFNTMVSNGYWTPNLVDYVKDFLDAVTIDFKGNGEQKFLRRYTGATSAEPIIETASELSKKGIHVEITDLIIPQIGDDLQAAKQLLTKLYDQLGADIPIHFLRFHPDYKLNYIPWTPVETLERHYKLAKELGFKFVYVGNVPGHPYENTYCPNCGNLVIRRYSFDILEWHLTEDMRCKFCGYKLPIRGKLSRHAFKERFEPVFI | not soluble
MKGRVVIADDEPITRMDIVEMLLEEGYDIVGEASDGFDAIELCKKHKPDLVLMDVKMPLLNGLKAAEVINQDELAACVVLVTAYSGREFVEEAKKAGAMGYVVKPINEKNLLPTLEVAVSKSKEFNEMKSQVKKAQVQLEDRKQIERAKGILMKKEMLSEEEAYNQIRKLSMSKRCSMGEIAKIITMNQ | not soluble
MSLRASVAATKQKRFVAVDIETTGLNTESDQILSIGAVKHDGIEFYRLIKQDIDVPKQIVELTGITSEMLSKEGVPLQDALEELTDFVGNVPIVGYNFRFDSVFLNRDYRKCGMQELKNEIKDLLPVVKRREKFLDNYKLQTVLSNYGIENKVPHNAVSDARATKELAMKLIKNRILVIEGHHHHHH | soluble
MIKYSIRGENIEVTEAIREYVETKLSKVEKYFNEAQELDTRVNLKVYREKTAKVEVTILIDSITLRAEDVSQDMYGSIDLVVDKIERQIRKNKTKIAKKYREKIPASQVFTTEFEAEPDEEAVSQRIVRTKNVNLKPMDVEEALLQMELLGHDFFIYTDAEDNTTNVLYKREDGELGLIEAKGNLEHHHHHH | soluble
TDIAGLTIEHVTGDYLNGFRIIPDNIKYKGVIVTFGGSDGTPAYEQAVQLAQEGYQVLALFFFGMPNQHPTLAEVPVEYYQEIESYISQHFSQPDKITVIGTSKGAEYALLLASLYDSIDNVVLYAPSSHIYAGLDFRNYSSSWSQNGKALPYLDVRSENSLKLFYNFLIKTPISYYHTYKQALDKDKNSEDKRIKVEKTKANILIFAGENDRMWPSAESARLIEKYQPNHTQVTIYKEAGHLFAGDGI | not soluble
MRIGELSKETGVSERSLRHYEEKGLLPSKRLANGYRDFDESAIEKVELIQMYLQIGLNLEETARMLRCLEIEPHLYDNPCSSILTLYEDKLNEVTKQITLLSNIQANLQKHVSLLKQAKEKE | not soluble
MEAVERAFRALDEGIADYLARKGIRPSCGPGCFACCYGWVTASRLEAQALLPHLTEAQKARVLEEGPRRLALLAREKDDPGFPRRFFLSRSPCPLLEAGLCGVYAHRPLACRGVLTDEDPAYCDPENPHPAPKPHHGPGHFLRVPHRMARRRMEELWEEERAQTGFLVLGELSGLLYLLLTGLPEDREGVEARLEALGVLGGRFGFQVVAAALEHHHHHH | not soluble
MENNNSPTNAAEHNQKIDPRNYDDVLSVAASIREQVGEDVARADLGIICGSGLGPIGDTVQDATILPYSKIPGFPTTHVVGHKGNMIFGKLGGKKVVCLQGRFHPYEHNMDLALCTLPVRVMHQLGIKIMIVSNAAGGINAVLRHGDLMLIKDHIFLPALAGFSPLVGCNDPRFGARFVSVHDAYDKQLRQLAIDVGRRSDMTLYEGVYVMSGGPQYESPAEVSLFKTVGADALGMSTCHEVTVARQCGIKVLGFSLITNIANLDADASVEVSHEEVMDIAQQAGERASRFVSDIITEITL | not soluble
MTTLSMENFAQLFEESLTLHDMRVGEVITAEVVAVDSNFVTVNAGLKSESLIPAEEFKNDQGVVEVAIGDFVTVAIDALENGFGETKLSREKAKRMAAWVELEEALEAGTILSGMISGKVKGGLTVMVNGIRAFLPGSLVDVRPVKDTTPYENKQIEFKVIKLDRKRNNVVVSRRSVLEETLGEERKALLETLKEGAVIKGIVKNITDYGAFVDLGGIDGLLHITDLAWRRVKHPSEVLAVGDEVEAKVLKFDQEKNRVSLGLKQLGEDPWVGLSRRYPSGTRLFGKVTNLTDYGAFVEIEQGIEGLVHVSEMDWTNKNVHPSKVVQVGDEVEVMILEIDEDRRRISLGMKQCLANPWNEFADNFHKGDKLKGAIKSITDFGVFVGLPGGIDGLVHLSDLSWNEAGEEAVRKFKKGDEVEAVVLSIDVEKERISLGIKQLEGDPFNNFVAMNDKGALVKGTVKSVDAKGAVIALDADVEGYLRASELSRDRVEDARSVLKDGDAVEAVIVAVDRKSRNISLSIKAKDAQEDNAALKSLAVDSASAGTTNLGALLKAKLSGSNE | soluble
MGSSHHHHHHSSGLVPRGSHMIVREGSAEILVPEVYHGPGKRGTGFYNADQKINRDITIEFIKKMGIRNVLDGFGGTGIRGIRISKETDSAVTISEVSPDSYRLIRDNVERNGSQASVINDSFECVLQHGAYEYVDVDPYGSPVPYLDAALMGVKRNGFLGVTATDQSALTGSVPHKTRIRYDALIKNDTFRHEMGIRLLIGYMAKRAASLGRFIDPLISIWHGHYYRVFVRVRKGFEGAGRMMQNLGYVNKHNLLSGIYQDMDEGPVWKGNLQDNAVAEAVLASAGHKAFNPEENRLLFCDLTDIARARHTSLPDIESVIDALSSSGHAASRTMFSPTGIKTDASCDLVESLMMDTLHRRSPA | soluble
MVYLLDLSGVYCEPVEPRLLRLLAEESGEPVFYLSEAFYALLPRLKAEGAQALEALFPGASRLYPKAFRPRGLAFPEPFHLVSDLPPPEGVLAYHAPDKLEALALALEALGLAPGEAVYWDDNPLWVERARGLGVRAELFLP | soluble
MGSDKIHHHHHHMRKRRVYWTLFITAFAWLASCSDDDINGSSGFNPNQPIEITEFYPDSGGIATPMIIEGRNFGTDTTGMKVYFEDVDGIRHPAGLVSSNGSRIYAFVPKGLTFKREMNILVERRTPDGQEYIGKAPDQFLYKTQTSVSTVAGLASPDNNINTVGGDLATCTFSSPFYLCIDGEDNIFVVDRKGDSGKDKQPNTTCRNEKGEGVNGNISMISIASNSSIVLKYGTAYINAPAYSDEKDAEAVYIPDDAGMKYYDMQKLLNYVPRYRTVLKSEELSTVDENNWKHCFVINKLDHMIYTVMWKGQLVRINPKNRTAEILLKKISNVATGDGGKAGSDSYIAFSPIKGEENVLYVSLADFHQIWRVDVSKITPEDKDTYNGESYAGKAIYEGVMNGKGWEDGLLKNAKFRHPRQICFTDDGKMYIADSGNSCIRVIDTTMPKERAAVTTPIGLPGAEGYKDGGPEIAKFHFPCGVAVNSDGTIVYVADTQNKVIRKLSIE | not soluble
MASLATSISGSFRILVKSSSTRNGFPVISDQNPSFVLFANKRRHISRTAIFHRSAISGSSQGEKISPLASGVSSGLYSAQTFDLTPQNVDLVLEDVRPFLISDGGNVDVVSVEDGVVSLKLQGACTSCPSSSTTMTMGIERVLKEKFGDALKDIRQVFDEEVKQITVEVSEASF | not soluble
